The text below walks through data of publication PMC4316159.

A word on the Kd: it is the free concentration of one partner at which half of the binding sites on the other are occupied at equilibrium, for simple one-to-one binding. What is called koff is a measure of how fast the partners let go of each other. The low end stands for a long-lived complex, the high end for a short-lived complex. The kon is the second-order rate constant of association. Read a low kon as slow association.

Assay [1] has as its target CD44 trans-membrane domain (TMD) fused to maltose-binding protein [MBP: P0AEX9]. The experiment in a line: single-molecule force spectroscopy.
Assay [2] has as its target biotinylated maltose-binding protein (MBP) [MBP: P0AEX9]. Kind of assay: SPR. Background: Surface plasmon resonance follows binding to a sensor surface in real time, without labels.

In the case of monobody YS1(E47A) (designed binder), in assay [1], the decrease of rupture force against YS1 lay within 10 to 15 pN and the unstressed off-rate k0off (Bell model) was 0.00076 s⁻¹. In assay [2], this substance displayed a dissociation constant (Kd) of 101 nM, a koff of 0.0387 s⁻¹ and a kon of 360000 M⁻¹ s⁻¹.
